This test concerns the target T1, p65-N2-His (amino acids 1-190) (UniProt Q04206 1-190).
T1 construct: NF-κB p65, N-terminal 190 residues, subcloned into pET28a; also called p65-N2-6 × His; 6 × His-tagged p65-N2 fragment; source: E. coli, purified
Description: pull-down; in vitro: purified GST-fused MANF (or truncate, or GST) pre-bound to glutathione-agarose; purified p65-N2-6xHis loaded in 50 mM Tris-HCl pH 7.5, 100 mM NaCl, 0.1% Triton X-100, 1 hr at 4°C; eluted with 500 mM NaCl; blot with anti-His. Conditions: both partners purified.

T1 sequence (Q04206 1-190): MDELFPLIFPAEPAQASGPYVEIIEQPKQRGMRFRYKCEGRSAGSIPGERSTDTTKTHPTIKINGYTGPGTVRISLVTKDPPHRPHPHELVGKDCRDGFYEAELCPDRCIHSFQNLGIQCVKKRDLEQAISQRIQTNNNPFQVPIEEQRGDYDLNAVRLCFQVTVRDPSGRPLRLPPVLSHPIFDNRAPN

B1: MANF-D3-GST (C-terminal SAP-like domain, amino acids 96-182) (domain or fragment, human, UniProt P55145 96-182, looked up)
chain: LAHHIPVEKICEKLKKKDSQICELKYDKQIDLSTVDLKKLRVKELKKILDDWGETCKGCAEKSDYIRKINELMPKYAPKAASARTDL
B1: the binding result is “binds”.
